# How the values were obtained:
# [1] = molecular target: T1, biotinylated OPTN (26–196 aa) (UniProt Q96CV9 26-196, NH2-GGG(Lys[Biotin])-CONH2 joined at the C-terminal sortase recognition sequence by Sortase 5Y); test: BLI; biotinylated OPTN (26–196 aa) immobilised on a streptavidin biosensor (Octet); monobody as analyte at various concentrations; 30 °C; 50 mM Hepes-KOH pH 7.5, 300 mM NaCl, 0.05% Tween 20, 0.1% PEG6000; association 600 s, dissociation 600 s; global fitting; details: both partners purified
# T1 construct: also called Biotin-modified OPTN; not shown: GST, N-terminal, cleaved; His6, C-terminal, cleaved; biotin (GGGK-biotin), C-terminal, kept
# [2] = molecular target: T2, OPTN (26–196 aa)-EGFP with E50K (UniProt Q96CV9 26-196, E50K); test: pull-down; recombinant GST-TBK1 (677–729 aa), OPTN (26–196 aa)-EGFP or EGFP alone, and monobodies, 4.5 μM each, with glutathione Sepharose in 50 mM Tris–HCl pH 7.5, 120 mM NaCl, 1 mM TCEP, 10% glycerol, 30 min at room temperature; washes with 0.1% Triton X-100; CBB staining; details: both partners purified
# T2 construct: source: E. coli BL21-CodonPlus(DE3)-RIL, purified (Ni-NTA); not shown: EGFP, C-terminal, kept
# T2 sequence (Q96CV9 26-196 E50K): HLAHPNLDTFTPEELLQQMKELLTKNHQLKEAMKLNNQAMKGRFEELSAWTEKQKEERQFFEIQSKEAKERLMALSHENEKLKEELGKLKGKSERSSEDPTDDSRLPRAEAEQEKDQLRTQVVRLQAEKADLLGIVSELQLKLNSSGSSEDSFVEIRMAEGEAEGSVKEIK
# T1 sequence (Q96CV9 26-196): as the sequence (Q96CV9 26-196 E50K) above, with K25E counted along it
Kd [1] [nM],binding result [2],Binder
4.56,,recombinant OPTN monobody clone #3 (His6-tagged) (designed binder) VSDVPRDLEVVAATPTSLLISWDAPWWWDYGYMYYRITYGETGGNSPVQEFTVPGSKSTATISGLKPGVDYTITVYAWDVAEWVTKVATSWPISINYRT
6.19,,recombinant OPTN monobody clone #4 (His6-tagged) (designed binder) VSDVPRDLEVVAATPTSLLISWDAPWFWYFPYYYQEWYYRITYGETGGNSPVQEFTVPGSKSTATISGLKPGVDYTITVYAAMELKGIQEYRNPISINYRT
,binds,"GST-TBK1 (677–729 aa) (domain or fragment, UniProt Q9UHD2 677-729, looked up, Plasmid pGEX6P1_opt-TBK1 (677–729aa); also called GST-tagged TBK1 (677–729 aa); GST-TBK chimera; source: E. coli BL21-CodonPlus(DE3)-RIL, purified (glutathione Sepharose); not shown: GST, N-terminal, kept) YPSSNTLVEMTLGMKKLKEEMEGVVKELAENNHILERFGSLTMDGGLRNVDCL"

# Reference: PMC10907724, “Optineurin provides a mitophagy contact site for TBK1 activation” (The EMBO Journal, 2024)
